In patent publication US20260152559A1 (Janssen / Centocor, published 2026):

B1: KL2B30 (Fab) (Fab, V domains shown)
VH: QVQLQESGPGLVKPSETLSLTCTVSGGSISSYYWSWIRQPPGKGLEWIGYIYYSGSTNYNPSLKSRVTISVDTSKNQFSLKLSSVTAADTAVYYCAGTTIFGVVTPNFYYGMDVWGQGTTVTVSS
VL: DIQMTQSPSFLSASVGDRVTITCRASQGISSYLAWYQQKPGKAPKFLIYAASTLQSGVPSRFSGSGSGTEFTLTISSLQPEDFATYYCQQLNSYPLTFGGGTKVEIK
B2: KL2B359 (scFv-LH-Fc) (Fc fusion)
chain: EIVLTQSPATLSLSPGERATLSCRASESVEYFGTSLMHWYQQKPGQPPRLLIYAASNVESGIPARFSGSGSGTDFTLTISSVEPEDFAVYFCQQTRKVPYTFGGGTKVEIKGGSEGKSSGSGSESKSTGGSQVQLQESGPGLVKPSQTLSLTCTVSGNSITSDYAWNWIRQFPGKRLEWIGYISYSGSTTYNPSLKSRVTISRDTSKNQFSLKLSSVTAADTAVYYCATGYYYGSGFWGQGTLVTVSSEPKSSDKTHTCPPCPAPEAAGGPSVFLFPPKPKDTLMISRTPEVTCVVVSVSHEDPEVKFNWYVDGVEVHNAKTKPREEQYNSTYRVVSVLTVLHQDWLNGKEYKCKVSNKALPAPIEKTISKAKGQPREPQVYVLPPSREEMTKNQVSLLCLVKGFYPSDIAVEWESNGQPENNYLTWPPVLDSDGSFFLYSKLTVDKSRWQQGNVFSCSVMHEALHNHYTQKSLSLSPG
notes: also called KL2B359-LH-scFv-Fc
B3: KL2B494 (Fab) (Fab, V domains shown)
VH: QVQLVESGGGLVQPGGSLRLSCAASGFTFSHYAMSWVRQAPGKGLEWVSTIGGSGGSTYYADSVKGRFTISRDNSKNTLYLQMNSLRAEDTAVYYCAKPHIVMVTALLYDGMDVWGQGTMVTVSS
VL: SSELTQPPSVSVAPGQTARITCGGNNIGSKSVHWYQQKPGQAPVLVVYDDSDRPSGIPERFSGSNSGNTATLTISRVEAGDEADYYCQVWDSSSDHVVFGGGTKLTVL
B4: KL2B242 (Fab) (Fab, V domains shown)
VH: QVQLQESGPGLVKPSETLSLTCTVSGGSISSYYWSWLRQPAGSGLEWIGRLYVSGFTNYNPSLKSRVTLSLDPSRNQLSLKLSSVTAADTAVYYCAGDSGNYWGWFDPWGQGTLVTVSS
VL: SYELTQPPSVSVSPGETASITCSGDQLGENYACWYQQKPGQSPVLVIYQDSKRPSGIPERFSGSNSGNTATLTISGTQALDEADYYCQAWDNSIVVFGGGTKLTVL
B5: KL2B467 (Fab) (Fab, V domains shown)
VH: QVQLVESGGGVVQPGRSLRLSCAASGFTFSYYGMHWVRQAPGKGLEWVAFISYDGSNKYYADSVKGRFTISRDNSKNTLYLQMNSLRAEDTAVYYCAHLPYSGSYWAFDYWGQGTQVTVSS
VL: QSVLTQPPSVSVAPGQTASITCGGDNIGSKSVHWYQQKPGQAPVLVVYDNSDRPSGIPERFSGSNSGTTATLTISRVEAGDEADYYCQVWDSSSDHPVVFGGGTKVTV
B6: KL2B413 (scFv-LH-Fc) (Fc fusion)
chain: EIVLTQSPSFLSASVGDRVTITCRASQGISSYLSWYQQKPGKAPKLLIYATSTLQSGVPSRFSGSGSGTEFTLTISSLQPEDFATYYCQQLNSYPRTFGQGTKVEIKGGSEGKSSGSGSESKSTGGSEVQLVESGGGLVQPGGSLRLSCAASGFTFSSYWMTWVRQAPGKGLEWVANIKQDGSERYYVDSVKGRFTISRDNAKNSLYLQMNSLRAEDTAVYYCARDQNYDILTGHYGMDVWGQGTTVTVSSEPKSSDKTHTCPPCPAPEAAGGPSVFLFPPKPKDTLMISRTPEVTCVVVSVSHEDPEVKFNWYVDGVEVHNAKTKPREEQYNSTYRVVSVLTVLHQDWLNGKEYKCKVSNKALPAPIEKTISKAKGQPREPQVYVLPPSREEMTKNQVSLLCLVKGFYPSDIAVEWESNGQPENNYLTWPPVLDSDGSFFLYSKLTVDKSRWQQGNVFSCSVMHEALHNHYTQKSLSLSPG
notes: also called KL2B413-LH-scFv-Fc
B7: KL2B53 (Fab) (Fab, V domains shown)
VH: EVQLVESGGGVVQPGRSLRLSCVASGFTFSSYDIHWVRQAPGKGLEWVAIISYDGSKKDYTDSVKGRFTISRDNSKNTLYLQMDSLRVEDSAVYSCARESGWSHYYYYGMDVWGQGTMVTVSS
VL: DIVMTQSPSSLSASVGDRVTITCRASQDISNYLAWYQQKPGKVPKFLIYAASTLHSGVPSRFSGSGSGTDFTLTISSLQPEDVATYYCQKYNSAPYTFGQGTRLEIK

What follows are binders tested against T1, kallikrein related peptidase 2 (hK2), soluble (human, UniProt P20151 19-261, biotin label in the CAR staining assays (site not stated)) (assay: SPR; antibody captured on anti-Fc sensor chip, soluble hK2 injected; 1:1 Langmuir fit, KD = koff/kon).
T1 construct: also called KLK2; human KLK2 protein
T1 sequence (P20151 19-261): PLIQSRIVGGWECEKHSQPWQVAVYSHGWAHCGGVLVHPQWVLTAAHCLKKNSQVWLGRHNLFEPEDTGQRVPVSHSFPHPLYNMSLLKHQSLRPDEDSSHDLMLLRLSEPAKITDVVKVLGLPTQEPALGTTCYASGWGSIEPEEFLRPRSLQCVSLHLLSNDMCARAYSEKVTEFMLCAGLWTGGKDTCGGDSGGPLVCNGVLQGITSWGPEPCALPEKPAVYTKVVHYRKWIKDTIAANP

Row | Kd [pM] | Binder
1 | 460 | B1
2 | 700 to 1000 | B2
3 | 53 | B3
4 | 40 | B4
5 | 78 | B5
6 | 34300 | B6
7 | 80 | B7
